Results taken from patent US20240182556A1 (OPSIDIO, published 2024).

T1: exon 6 peptide (ASSLRNDSSSSNRKAKNPPGDS), coated on ELISA plate (not fully specified)
T1 construct: No biotin is mentioned for the ELISA coat; also called a peptide of SCF248
T1 peptide: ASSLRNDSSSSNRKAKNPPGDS


What was measured:
[1] = target: human SCF248 (stem cell factor 248 isoform) expressed on mouse SI/SI4 cells (human), P21583; assay: cell-based or functional assay
[2] = target: T1, exon 6 peptide …; assay: direct ELISA on coated peptide, IgG4, read at 450 nm
Description: A direct enzyme-linked immunosorbent assay (ELISA) was performed to evaluate binding of the clones of Example 2 (referred to in all additional examples as “mutants”) to the Exon 6 peptide. The mutants were expressed as full length IgG4 antibodies.
The plate was incubated at 4° C. overnight. […] Both plates were washed with wash buffer twice. Then, the plates were blocked with blocking buffer for 1 hour at 37° C. The plates were then washed with wash buffer twice. […] The plate was covered and incubated for 1 hour at 37° C. The plates were then washed with wash buffer three times. The secondary antibody was added to the plates. The plates were covered and incubated for 1 hour at 37° C. The plates were then washed with wash buffer three times. 100 μL of detection substrate was added to each well of the plates. The plates were covered and incubated for 10-20 minutes at room temperature. Subsequently, 100 μL of stop solution was added to the plates. Each plate was read at an absorbance of 450 nm.
Reagents: Coating buffer contained 1.5M NaCl, 0.5M […], and 1.0N NaOH. Wash buffer contained 0.05% Tween-20 in PBS. Blocking buffer contained 2.0% normal goat serum in wash buffer. The dilution buffer was wash buffer and 2% FCS. The secondary antibody was a goat anti-human IgG HRP conjugate, purchased from Millipore (Catalogue Number: AP309P). The secondary antibody was diluted 1:1000. The detection substrate was prepared by dissolving 4 O-phenylenediamine dihydrochloride (OPD) tablets dissolved in 12 mL sterile distilled water. 5 μL of hydrogen peroxide (30% v/v) was added to the detection substrate immediately before adding substrate to the wells. The stop solution contained 0.5 M H₂SO₄.

human SCF248 (stem cell factor 248 isoform) expressed on mouse SI/SI4 cells (human), P21583, sequence (P21583 26-273): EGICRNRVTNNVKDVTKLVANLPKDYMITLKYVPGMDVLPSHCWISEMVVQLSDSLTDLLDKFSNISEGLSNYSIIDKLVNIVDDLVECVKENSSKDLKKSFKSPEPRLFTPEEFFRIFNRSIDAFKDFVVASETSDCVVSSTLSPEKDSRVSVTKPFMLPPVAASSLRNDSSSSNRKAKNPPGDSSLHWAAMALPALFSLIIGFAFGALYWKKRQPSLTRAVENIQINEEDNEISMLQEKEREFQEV

Binder | CCL2 Expression as Percentage of Positive Control [1] [%] | TGFβ Expression as Percentage of Positive Control [1] [%] | absorbance at 0.1 ng/mL antibody [2] [absorbance] | absorbance at 0.5 ng/mL antibody [2] [absorbance] | absorbance at 1 ng/mL antibody [2] [absorbance] | absorbance at 5 ng/mL antibody [2] [absorbance] | absorbance at 100 ng/mL antibody [2] [absorbance] | absorbance at 1000 ng/mL antibody [2] [absorbance]
5H10 VK3/VH1 humanized antibody of Table 1 (antibody, V domains shown) VH: QVQLVQSGAELKKPGSSVKISCKSSGYAFSSYWMNWVKQRPGQGLEWIGQIYPGDGDTHYNGKFKGKATLTADKSTSTAYMELSSLTSEDSAVYFCSSSNWVGSYWGQGTLVTVSS VL: DVVMTQSPLSLPVTLGQPASISCKSSQSLLESDGKTYLNWLQQRPGQSPRRLIYLVSRLDSGVPDRFSGSGSGTDFTLKISRVEAEDVGVYYCWQGTHLPQTFGGGTKVEIK | 37 | 65.5 | – | – | – | – | – | –
D14P mutant expressed as full length IgG4 antibody (antibody, V domains shown, Full length IgG4) VH: QVQLVQSGAELKKPGSSVKISCKSSGYAFSSQWMNWVKQRPGQGLEWIGQIYPGDDDTHYNDKFKGKATLTADKSTSTAYMELSSLTSEDSAVYFCSSSNWVGSYWGQGTLVTVSS VL: DVVMTQSPLSLPVTLGQPASISCKSSQSLLESDGNTYLNWLQQRPGQSPRRLIYLVDRLDLGVPDRFSGSGSGTDFTLKISRVEAEDVGVYYCWQGTDLPQTFGGGTKVEIK | 46.8 | 48.8 | 0.137 | 0.266 | 0.861 | 1.81 | 2.53 | 3.15
A64P mutant expressed as full length IgG4 antibody (antibody, V domains shown, Full length IgG4) VH: QVQLVQSGAELKKPGSSVKISCKSSGYAFSSNWMNWVKQRPGQGLEWIGQIYPEDGDTHYNGKFKGKATLTADKSTSTAYMELSSLTSEDSAVYFCSSSNWVGSYWGQGTLVTVSS VL: DVVMTQSPLSLPVTLGQPASISCKSSQSLLEEDGNTYLNWLQQRPGQSPRRLIYLVNRLDDGVPDRFSGSGSGTDFTLKISRVEAEDVGVYYCWQGTDLPQTFGGGTKVEIK | 22.9 | 47.9 | 0.122 | 0.172 | 0.564 | 1.41 | 2.71 | 3.12
H83P mutant expressed as full length IgG4 antibody (antibody, V domains shown, Full length IgG4) VH: QVQLVQSGAELKKPGSSVKISCKSSGYAFSSQWMNWVKQRPGQGLEWIGQIYPGDGDIHYNDKFKGKATLTADKSTSTAYMELSSLTSEDSAVYFCSSSNWVGSYWGQGTLVTVSS VL: DVVMTQSPLSLPVTLGQPASISCKSSQSLLESDGNTYLNWLQQRPGQSPRRLIYLVDRLDSGVPDRFSGSGSGTDFTLKISRVEAEDVGVYYCWQGTDLPQTFGGGTKVEIK | 56.2 | 77.1 | 0.204 | 0.537 | 0.597 | 1.42 | 1.81 | 2.32
H74P mutant expressed as full length IgG4 antibody (antibody, V domains shown, Full length IgG4) VH: QVQLVQSGAELKKPGSSVKISCKSSGYAFSSQWMNWVKQRPGQGLEWIGQIYPEDGDTHYNGKFKGKATLTADKSTSTAYMELSSLTSEDSAVYFCSSSNWVGSYWGQGTLVTVSS VL: DVVMTQSPLSLPVTLGQPASISCKSSQSLLEEDGNTYLNWLQQRPGQSPRRLIYLVDRLDLGVPDRFSGSGSGTDFTLKISRVEAEDVGVYYCWQGSHLPQTFGGGTKVEIK | 40.6 | 58.4 | 0.105 | 0.249 | 0.58 | 1.3 | 2.56 | 3
B114P mutant expressed as full length IgG4 antibody (antibody, V domains shown, Full length IgG4) VH: QVQLVQSGAELKKPGSSVKISCKSSGYAFSSQWMNWVKQRPGQGLEWIGQIYPEDGDTHMNGKFKGKATLTADKSTSTAYMELSSLTSEDSAVYFCSSSNWDGSYWGQGTLVTVSS VL: DVVMTQSPLSLPVTLGQPASISCKSSQSLLEEDGNTYLNWLQQRPGQSPRRLIYLVDRLDSGVPDRFSGSGSGTDFTLKISRVEAEDVGVYYCWQGTDLPQTFGGGTKVEIK | 59.1 | 59.5 | 0.098 | 0.127 | 0.446 | 1.11 | 2.43 | 2.81
A104P mutant expressed as full length IgG4 antibody (antibody, V domains shown, Full length IgG4) VH: QVQLVQSGAELKKPGSSVKISCKSSGYAFSSQWMNWVKQRPGQGLEWIGQIYPEDGDTHYNGKFKGKATLTADKSTSTAYMELSSLTSEDSAVYFCSSSNWVGSYWGQGTLVTVSS VL: DVVMTQSPLSLPVTLGQPASISCKSSQSLLEEDGNTYLNWLQQRPGQSPRRLIYLVDRLDSGVPDRFSGSGSGTDFTLKISRVEAEDVGVYYCWQGTDLPQTFGGGTKVEIK | 27.4 | 46.9 | 0.092 | 0.305 | 1.02 | 1.57 | 2.6 | 2.94
A84P mutant expressed as full length IgG4 antibody (antibody, V domains shown, Full length IgG4) VH: QVQLVQSGAELKKPGSSVKISCKSSGYAFSSQWMNWVKQRPGQGLEWIGQIYPEDGDTHMNGKFKGKATLTADKSTSTAYMELSSLTSEDSAVYFCSSSNWVGSYWGQGTLVTVSS VL: DVVMTQSPLSLPVTLGQPASISCKSSQSLLEEDGNTYLNWLQQRPGQSPRRLIYLVDRLDIGVPDRFSGSGSGTDFTLKISRVEAEDVGVYYCWQGTDLPQTFGGGTKVEIK | 35.6 | 65.8 | 0.131 | 0.193 | 0.56 | 1.48 | 2.67 | 3.14
F54P mutant expressed as full length IgG4 antibody (antibody, V domains shown, Full length IgG4) VH: QVQLVQSGAELKKPGSSVKISCKSSGYAFSSQWMNWVKQRPGQGLEWIGQIYPEDGDTHMNGKFKTKATLTADKSTSTAYMELSSLTSEDSAVYFCSSSNWVGSYWGQGTLVTVSS VL: DVVMTQSPLSLPVTLGQPASISCKSSQSLLEEDGNTYLNWLQQRPGQSPRRLIYLVDRLDSGVPDRFSGSGSGTDFTLKISRVEAEDVGVYYCWQGTDLPQTFGGGTKVEIK | 55.7 | 74.6 | 0.11 | 0.367 | 0.446 | 1.35 | 1.57 | 2.42
D44P mutant expressed as full length IgG4 antibody (antibody, V domains shown, Full length IgG4) VH: QVQLVQSGAELKKPGSSVKISCKSSGYAFSSQWMNWVKQRPGQGLEWIGQIYPEDGDIHYNGKFKGKATLTADKSTSTAYMELSSLTSEDSAVYFCSSSNWVGSYWGQGTLVTVSS VL: DVVMTQSPLSLPVTLGQPASISCKSSQSLLEEDGNTYLNWLQQRPGQSPRRLIYLVDRLDSGVPDRFSGSGSGTDFTLKISRVEAEDVGVYYCWQGSHLPQTFGGGTKVEIK | 42.2 | 58.5 | 0.0895 | 0.207 | 0.744 | 1.98 | 2.16 | 2.9
B124P mutant expressed as full length IgG4 antibody (antibody, V domains shown, Full length IgG4) VH: QVQLVQSGAELKKPGSSVKISCKSSGYAFSSNWMNWVKQRPGQGLEWIGQIYPEDGDTHYNDKFKGKATLTADKSTSTAYMELSSLTSEDSAVYFCSSSNWVGSYWGQGTLVTVSS VL: DVVMTQSPLSLPVTLGQPASISCKSSQSLLEQDGNTYLNWLQQRPGQSPRRLIYLVDRLDSGVPDRFSGSGSGTDFTLKISRVEAEDVGVYYCWQGTDLPQTFGGGTKVEIK | 55.9 | 49.6 | 0.0985 | 0.183 | 0.629 | 1.32 | 2.4 | 2.76
B104P mutant expressed as full length IgG4 antibody (antibody, V domains shown, Full length IgG4) VH: QVQLVQSGAELKKPGSSVKISCKSSGYAFSSQWMNWVKQRPGQGLEWIGQIYPDDGDTHYNDKFKGKATLTADKSTSTAYMELSSLTSEDSAVYFCSSSNWVGSYWGQGTLVTVSS VL: DVVMTQSPLSLPVTLGQPASISCKSSQSLLEADGNTYLNWLQQRPGQSPRRLIYLVDRLDSGVPDRFSGSGSGTDFTLKISRVEAEDVGVYYCWQGTDLPQTFGGGTKVEIK | 31.7 | 43.9 | 0.0855 | 0.174 | 0.527 | 1.13 | 1.83 | 2.48
